Reference: publication PMC12214019, “Mechanistic insights into direct DNA and RNA strand transfer and dynamic protein exchange of SSB and RPA”

Legend:
RPA (yeast) [1] = target: T1, RPA (yeast) (Saccharomyces cerevisiae, UniProt P22336;P26754;P26755 1-621;1-273;1-122); assay: competition (smFRET strand transfer); from dT40-RPA, 100 mM NaCl; 8.6±0.3e4 M-1 s-1; 10 mM Tris-HCl pH 7.5, 100 or 300 mM NaCl, 10% glycerol, 10 mM Trolox, 0.5% glucose, glucose oxidase/catalase, ~23 C; settings: protein: recombinant; copies: 1;1;1
T1 sequence (P22336 whole entry, chain 1 of 3): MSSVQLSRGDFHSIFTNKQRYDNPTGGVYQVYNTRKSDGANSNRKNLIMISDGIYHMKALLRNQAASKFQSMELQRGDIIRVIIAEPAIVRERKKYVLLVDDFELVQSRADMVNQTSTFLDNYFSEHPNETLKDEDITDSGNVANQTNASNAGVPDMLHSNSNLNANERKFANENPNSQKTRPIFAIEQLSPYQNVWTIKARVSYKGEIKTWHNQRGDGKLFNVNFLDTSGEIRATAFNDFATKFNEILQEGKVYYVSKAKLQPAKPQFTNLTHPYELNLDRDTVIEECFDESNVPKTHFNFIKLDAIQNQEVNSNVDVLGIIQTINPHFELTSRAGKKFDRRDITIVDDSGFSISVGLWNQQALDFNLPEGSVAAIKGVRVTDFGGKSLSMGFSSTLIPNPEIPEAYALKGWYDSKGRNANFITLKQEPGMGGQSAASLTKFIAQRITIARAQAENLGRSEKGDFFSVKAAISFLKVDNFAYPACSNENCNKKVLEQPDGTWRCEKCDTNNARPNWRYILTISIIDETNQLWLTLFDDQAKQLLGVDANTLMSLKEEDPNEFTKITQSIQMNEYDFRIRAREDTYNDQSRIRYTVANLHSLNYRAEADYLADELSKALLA
T1 sequence (P26754 whole entry, chain 2 of 3): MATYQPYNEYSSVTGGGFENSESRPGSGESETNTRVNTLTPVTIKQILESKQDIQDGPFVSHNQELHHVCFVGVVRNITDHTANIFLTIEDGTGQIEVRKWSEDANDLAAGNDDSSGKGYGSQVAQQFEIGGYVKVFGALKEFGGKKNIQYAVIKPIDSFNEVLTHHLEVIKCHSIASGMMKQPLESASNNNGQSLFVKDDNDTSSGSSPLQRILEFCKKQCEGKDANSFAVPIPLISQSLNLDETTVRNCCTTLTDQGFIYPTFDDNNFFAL
T1 sequence (P26755 whole entry, chain 3 of 3): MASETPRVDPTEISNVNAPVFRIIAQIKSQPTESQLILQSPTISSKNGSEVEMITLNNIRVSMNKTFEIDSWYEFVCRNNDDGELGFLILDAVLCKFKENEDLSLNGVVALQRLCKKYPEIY

hRPA = hRPA (Homo sapiens, UniProt P27694;P15927;P35244 1-616;1-270;1-121); assay: competition (smFRET strand transfer); from dT40-hRPA, 100 mM NaCl; 8.3±0.6e4 M-1 s-1; 10 mM Tris-HCl pH 7.5, 100 or 300 mM NaCl, 10% glycerol, 10 mM Trolox, 0.5% glucose, glucose oxidase/catalase, ~23 C; settings: protein: recombinant; copies: 1;1;1
hRPA, sequence (P27694 whole entry, chain 1 of 3): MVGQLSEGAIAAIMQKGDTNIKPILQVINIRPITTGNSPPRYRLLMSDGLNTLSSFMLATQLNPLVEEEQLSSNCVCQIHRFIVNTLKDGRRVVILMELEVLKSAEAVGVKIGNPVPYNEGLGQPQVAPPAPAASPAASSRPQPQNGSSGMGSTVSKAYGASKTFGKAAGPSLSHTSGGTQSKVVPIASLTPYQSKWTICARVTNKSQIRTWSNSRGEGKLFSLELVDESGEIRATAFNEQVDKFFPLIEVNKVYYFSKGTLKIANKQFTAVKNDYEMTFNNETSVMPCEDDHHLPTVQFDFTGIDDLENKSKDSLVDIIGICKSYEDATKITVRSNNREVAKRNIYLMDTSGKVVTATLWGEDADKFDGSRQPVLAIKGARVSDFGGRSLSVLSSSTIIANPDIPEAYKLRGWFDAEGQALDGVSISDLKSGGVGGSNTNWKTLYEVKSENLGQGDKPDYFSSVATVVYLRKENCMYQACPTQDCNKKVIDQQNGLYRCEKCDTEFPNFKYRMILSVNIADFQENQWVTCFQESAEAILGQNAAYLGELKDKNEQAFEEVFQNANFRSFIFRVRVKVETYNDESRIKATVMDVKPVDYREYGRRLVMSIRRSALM
hRPA, sequence (P15927 whole entry, chain 2 of 3): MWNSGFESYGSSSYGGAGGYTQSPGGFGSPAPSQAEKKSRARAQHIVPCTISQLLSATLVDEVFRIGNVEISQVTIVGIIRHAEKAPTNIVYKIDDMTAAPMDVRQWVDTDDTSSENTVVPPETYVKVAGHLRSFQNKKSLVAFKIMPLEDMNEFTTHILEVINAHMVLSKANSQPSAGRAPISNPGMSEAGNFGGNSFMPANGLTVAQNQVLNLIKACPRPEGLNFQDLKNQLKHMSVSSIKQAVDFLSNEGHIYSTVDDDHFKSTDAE
hRPA, sequence (P35244 whole entry, chain 3 of 3): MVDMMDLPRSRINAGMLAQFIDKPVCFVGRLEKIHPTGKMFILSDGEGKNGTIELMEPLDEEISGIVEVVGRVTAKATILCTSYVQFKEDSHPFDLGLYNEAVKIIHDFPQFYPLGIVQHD

SSB [2] = target: T2, SSB (UniProt P0AGE0 2-178); assay: competition (smFRET strand transfer); from dT40-SSB, 100 mM NaCl; 9.8±0.2e4 M-1 s-1; 10 mM Tris-HCl pH 7.5, 100 or 300 mM NaCl, 10% glycerol, 10 mM Trolox, 0.5% glucose, glucose oxidase/catalase, ~23 C; settings: protein: recombinant; chain copies: 4
T2 sequence (P0AGE0 2-178): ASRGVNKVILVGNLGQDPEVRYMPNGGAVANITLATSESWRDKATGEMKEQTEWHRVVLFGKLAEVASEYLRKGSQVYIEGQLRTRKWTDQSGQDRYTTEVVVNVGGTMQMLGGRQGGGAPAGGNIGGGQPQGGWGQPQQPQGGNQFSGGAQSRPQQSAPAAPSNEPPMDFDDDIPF

RPA (yeast) [3] = target: T1, RPA (yeast); assay: competition (smFRET strand transfer); from dT70-RPA, 100 mM NaCl; 9.1±0.4e4 M-1 s-1; 10 mM Tris-HCl pH 7.5, 100 or 300 mM NaCl, 10% glycerol, 10 mM Trolox, 0.5% glucose, glucose oxidase/catalase, ~23 C; settings: protein: recombinant; copies: 1;1;1
SSB [4] = target: T2, SSB; assay: competition (smFRET strand transfer); from dT70-SSB, 300 mM NaCl; 6.1±0.1e4 M-1 s-1; 10 mM Tris-HCl pH 7.5, 100 or 300 mM NaCl, 10% glycerol, 10 mM Trolox, 0.5% glucose, glucose oxidase/catalase, ~23 C; settings: protein: recombinant; chain copies: 4
RPA (yeast) [5] = target: T1, RPA (yeast); assay: competition (smFRET strand transfer); 100 nM competitor from dT40-RPA; rate jumps between dT20 and dT30; 10 mM Tris-HCl pH 7.5, 100 or 300 mM NaCl, 10% glycerol, 10 mM Trolox, 0.5% glucose, glucose oxidase/catalase, ~23 C; settings: protein: recombinant; copies: 1;1;1
RPA (yeast) [6] = target: T1, RPA (yeast); assay: single-molecule FRET; 3 nM, ternary intermediate with dT40-RPA, dwell ~0.27 s, 100 mM NaCl; 10 mM Tris-HCl pH 7.5, 100 or 300 mM NaCl, 10% glycerol, 10 mM Trolox, 0.5% glucose, glucose oxidase/catalase, ~23 C; settings: protein: recombinant; copies: 1;1;1; label: 3' Cy3
SSB [7] = target: T2, SSB; assay: single-molecule FRET; 3 nM, ternary intermediate with dT40-SSB, dwell ~0.31 s, 100 mM NaCl; 10 mM Tris-HCl pH 7.5, 100 or 300 mM NaCl, 10% glycerol, 10 mM Trolox, 0.5% glucose, glucose oxidase/catalase, ~23 C; settings: protein: recombinant; chain copies: 4; label: 3' Cy3
RPA (yeast) [8] = target: T1, RPA (yeast); assay: competition (smFRET strand transfer); from U50-RPA, 100 mM NaCl; 4.3±0.4e5 M-1 s-1; 10 mM Tris-HCl pH 7.5, 100 or 300 mM NaCl, 10% glycerol, 10 mM Trolox, 0.5% glucose, glucose oxidase/catalase, ~23 C; settings: protein: recombinant; copies: 1;1;1
SSB [9] = target: T2, SSB; assay: competition (smFRET strand transfer); from U50-SSB, 100 mM NaCl; 2.1±0.2e5 M-1 s-1; 10 mM Tris-HCl pH 7.5, 100 or 300 mM NaCl, 10% glycerol, 10 mM Trolox, 0.5% glucose, glucose oxidase/catalase, ~23 C; settings: protein: recombinant; chain copies: 4

TTTTTTTTTTTTTTTTTTTTTTTTTTTTTTTTTTTTTTTT (ssDNA) [dT40]: binds (RPA (yeast) [1]); binds (hRPA); binds (SSB [2]).

B1: dT60 (ssDNA)
DNA: TTTTTTTTTTTTTTTTTTTTTTTTTTTTTTTTTTTTTTTTTTTTTTTTTTTTTTTTTTTT
B1: binds (RPA (yeast) [3]); binds (SSB [4]).

TTTTTTTTTTTTTTTTTTTTTTTTTTTTTT (ssDNA) [dT30]: binds (RPA (yeast) [5]).

TTTTTTTTTTTTTTTTTTTTTTTTTTTTTTTTTTTTTTTT (ssDNA) [dT40-Cy3]: binds (RPA (yeast) [6]); binds (SSB [7]).

UUUUUUUUUUUUUUUUUUUUUUUUUUUUUUUUUUUUUUUUUUUUUUUUUU (ssRNA) [U50]: binds (RPA (yeast) [8]); binds (SSB [9]).
